According to the nanobody polyreactivity screen of Harvey et al. (2022):

Assay: yeast display, Sf9 membrane polyspecificity reagent, FACS + sequencing; frameworks hold sequencing errors
Procedure, shortened: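 Synthetic nanobody libraries on Saccharomyces cerevisiae BJ5465 were galactose-induced for 36–48 hours, stained 1 hour at 4 °C with 10% biotinylated, detergent-solubilized Sf9 membrane reagent and enriched on streptavidin microbeads. FACS then separated cells into low and high (top ~1%) gates by anti-HA (expression) and streptavidin (reagent binding) fluorescence. Genes were colony-PCR amplified, MiSeq 2 × 250 sequenced and CDR-length filtered. A clone's polyreactivity label is that of its gate of origin.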
With “QVQLVESGGGLVQAGGSLRLSCAASGSIFPAYAMGWYRQAPGKEREFVAAISGTGGITYYADSVKGRFTISRDNAKNTVYLQMNSLKPEDTEVYYCAAPVYNRYYYWGQGTQVTVSS” the “polyreactivity (PSR sort gate)” value was “low polyreactivity”. In the case of “QVQLVESGGGLVQAGGSLRLSCAASGSIFPDNVMGWYRQATGKERELVAAISRTGGSTYYADSVKGRFTISRDNAKNTVYLQMNSLKPEDTAVYYCNAKYRVPYAVGGDYGYWGQGTQVTVSS”, the “polyreactivity (PSR sort gate)” value is reported as “high polyreactivity”. With “QVQLVESGGGLVQAGGSLRLSCAASGSIFPDYALGWSRQAPGKESELVAAITRRDDSTYYADSVKGRFTISRDKAKNTVYLQMNSLKPEDTAVYYCNASALDPLYAKDDYWGQGTQVTVSS” the “polyreactivity (PSR sort gate)” value was “low polyreactivity”. With “QVQLVESGGGLVQAGGSLRLSCAASGSIFPDYAMGWYRQAPGKERELVAAIDTSTTDTYYADSVKGRFTISRDNAKNTVYLQMNSLKPEDTAVYYCAADAYDDPYGYWGQGTQVTVSS” the “polyreactivity (PSR sort gate)” value was “high polyreactivity”. With “QVQLVESGGGLVQAGGSLRLSCAASGSIFPDYAMGWYRQAPGKERELVAAITTSGGNTYYADSVKGRFTISRDNAKNTVYLQMNSLKPEDTAVYYCAAEITYSYPGSPRRRDYWGQGTQLTVSS” the “polyreactivity (PSR sort gate)” value was “low polyreactivity”. In the case of “QVQLVESGGGLVQAGGSLRLSCAASGSIFPDYAMGWYRQAPGKERELVAAITWRDDSTYYADSVKGRFTISRDNAKNTVYLQMNSLKPEDTAVYYCNASALDPLFAKDDYWGQGTQVTVSS”, the “polyreactivity (PSR sort gate)” value is reported as “low polyreactivity”. With “QVQLVESGGGLVQAGGSLRLSCAASGSIFPEYAMGWYRQAPGKEREFVATIRWSGDSTYYADSVKGRFTISRDNAKNTVYLQMNSLKPEDTAVYYCAADQGRYGIIGWDDYWGQGTQVTVSS” the “polyreactivity (PSR sort gate)” value was “low polyreactivity”. In the case of “QVQLVESGGGLVQAGGSLRLSCAASGSIFPFYAMGWYRHAPGKERELVASISSGGSTNYADSVKGRFTISRDNAKNTVYLQMNSLKPEDTAVYYCNAVVPYRWDTWFQVVYPESYDYWGQGTQVTVSS”, the “polyreactivity (PSR sort gate)” value is reported as “low polyreactivity”. In the case of “QVQLVESGGGLVQAGGSLRLSCAASGSIFPFYAMGWYRQAPGKERELVAAINYSAGSTYYADSVKGRFTISRDNAKYTVYLQMNSLKPEDTAVYYCAKEVSAYEMDYWGQGTQVTVSS”, the “polyreactivity (PSR sort gate)” value is reported as “low polyreactivity”. With “QVQLVESGGGLVQAGGSLRLSCAASGSIFPFYAMGWYRQAPGKERELVAAISSRGGSTYYADSVKGRFTISRDNAKNTVYLQMNSLKPEDTAVYYCAARDYSIKVRLGYWGQGTQVTVSS” the “polyreactivity (PSR sort gate)” value was “low polyreactivity”. In the case of “QVQLVESGGGLVQAGGSLRLSCAASGSIFPFYAMGWYRQAPGKERELVAAITYSGGSTFYADSVKGRFTISRDNAKNTVYLQMNSLKPEDTAVYYCNAVWRFGSSKYYYWGHGTQVTVSS”, the “polyreactivity (PSR sort gate)” value is reported as “high polyreactivity”. With “QVQLVESGGGLVQAGGSLRLSCAASGSIFPFYAMGWYRQAPGKERELVAVISTRGGSTYYADSVKGRFTISRDYAKNTVYFQMKSLKPEDTAVYYCAAKSVYRMGYWGQGTQVTVSS” the “polyreactivity (PSR sort gate)” value was “high polyreactivity”. With “QVQLVESGGGLVQAGGSLRLSCAASGSIFPFYAMGWYRQAPGKEREMLAANSDRGGSTYYADSVKGRFTISRDNAKNTVYLQMNSLKPEDTAVYYCNADRARFTYRATTYTGRYDYWGQGTQVTVSS” the “polyreactivity (PSR sort gate)” value was “low polyreactivity”. For “QVQLVESGGGLVQAGGSLRLSCAASGSIFPGNAKGWYRQAPGKERELVASINWSGGSTYYADSVKGRVTISRDNAKNTVYVQMNSLKPEDTAGYYCNARAFRQGHVEYDYWGQGTQVTVSS”, the “polyreactivity (PSR sort gate)” value was “low polyreactivity”. With “QVQLVESGGGLVQAGGSLRLSCAASGSIFPGNALGWYRQAPGKERELVAVIDFSGASTYYADSVKGRFTISRDNAKNTVYLQMNRLKPEDTADYWGQGTQVTVSS” the “polyreactivity (PSR sort gate)” value was “low polyreactivity”. With “QVQLVESGGGLVQAGGSLRLSCAASGSIFPGNAMGGYRQAPGKERELVAAIRGGGSTNYADSVKGRFTISRDTAKNTVYIQMNSLKPEDTAVYYCAAQGILGSYDYWGQGTQVTVSS” the “polyreactivity (PSR sort gate)” value was “low polyreactivity”. In the case of “QVQLVESGGGLVQAGGSLRLSCAASGSIFPGNAMGWYRPAPGKERELVAVIDFSGASTYYADSVKGRYTISRDNAKNTVYLQMNCLKPEVTADFWGQGTQVTVSS”, the “polyreactivity (PSR sort gate)” value is reported as “low polyreactivity”. In the case of “QVQLVESGGGLVQAGGSLRLSCAASGSIFPGYAMGWYRQAPGKERELVATITWSGGSTYYADSVKWRFTISRDNEKNTVYLQMNCLKPEDTAVYYCNADSNWYYQWNYYGLYDYWGQGTQVTVSS”, the “polyreactivity (PSR sort gate)” value is reported as “low polyreactivity”. With “QVQLVESGGGLVQAGGSLRLSCAASGSIFPHNAMGWYRQAPGKERELVAAISVSRGSTYYADSVKGRFTISRDNAKNTVYLQMNSLKPEDTAVYYCAAYAYGGRINGYRTYRYNYWGQGTQVTVSS” the “polyreactivity (PSR sort gate)” value was “high polyreactivity”. In the case of “QVQLVESGGGLVQAGGSLRLSCAASGSIFPHYAMGWYRQAPGKEREFVATISGSTGRTYYADSVKGRFTISRDNAKNTVYLQMNSLKPEDTAVYYCATSVGYYLPPIKYDYWGQGTQVTVSS”, the “polyreactivity (PSR sort gate)” value is reported as “low polyreactivity”. With “QVQLVESGGGLVQAGGSLRLSCAASGSIFPIYAMGWYRQAPGKERELVAAISGSGARTYYADSVKGRFTISRDNAKNTVYLQMNSLKPEDTAVYYCNAKYGYDSEARIVKPVRYDYWGQGTQVTVSS” the “polyreactivity (PSR sort gate)” value was “high polyreactivity”. For “QVQLVESGGGLVQAGGSLRLSCAASGSIFPIYAMGWYRQAPGKERELVAGIRGRGGRTYYADSVKGRFTISRDNAKNTVYLQMNSLKPEDTAVYYCAKANLTPQGRGDYDYWGQGTQVTVSS”, the “polyreactivity (PSR sort gate)” value was “high polyreactivity”. For “QVQLVESGGGLVQAGGSLRLSCAASGSIFPLYAMGWYRQAPGKERELDASITWSAGNTHYADSVKGRFTISRDNAKNTVYLQMNSLKPEDTAVYYCAADDLWLYYVDDLPINDFDYWGQGTQVTVSS”, the “polyreactivity (PSR sort gate)” value was “low polyreactivity”. For “QVQLVESGGGLVQAGGSLRLSCAASGSIFPNNAMGWYRQAPGKERELVAAISSSARTYYADSVKGRFTISRDNAKNTVYLQMNSLKPEDTAVYYCAARWYGRFLMGYWGQGTQVTVSS”, the “polyreactivity (PSR sort gate)” value was “high polyreactivity”. In the case of “QVQLVESGGGLVQAGGSLRLSCAASGSIFPNYAMGWYRQAPGKERELVAAISSSGGRTYYADSVKGRFTISRDNAKNTVYLQMNCLKPEDTAVYYCAADTYTSAQHEKYDYWGQGTQVTVSS”, the “polyreactivity (PSR sort gate)” value is reported as “low polyreactivity”. In the case of “QVQLVESGGGLVQAGGSLRLSCAASGSIFPPNAMGWSRQAPGKERELVAAISFSGGTSTYYADSVKGRFTISRDNAKNTVYLQMNSLKPEDTAVYYCAARKTTRRYHYDYWGQGTQVTVSS”, the “polyreactivity (PSR sort gate)” value is reported as “high polyreactivity”. In the case of “QVQLVESGGGLVQAGGSLRLSCAASGSIFPPNAMGWYRQAPGKEREFVATITGRGGRTYYADSVKGRFTISRDNAKNTVYLQMNSLKPEDTAVYYCAARYTTSSRAKIEYDYWGQGTQVTVSS”, the “polyreactivity (PSR sort gate)” value is reported as “high polyreactivity”. With “QVQLVESGGGLVQAGGSLRLSCAASGSIFPRNAMGWYRQAPGKERELVASINSGGSTKYADSVKGRFTISRDNAKNTLYLQMNSLKPEDTAVYYCAAVRPWWRNKPQWPRYDYCGQGTQVTVSS” the “polyreactivity (PSR sort gate)” value was “low polyreactivity”. For “QVQLVESGGGLVQAGGSLRLSCAASGSIFPRNVMGWYRQEPGKERQLVAVITARGGSTYYADSVKGRFTISRDNAKNTVYLQMNSLKPEDTAVYYCATPYSRRKIPPNYDYWGLGTQVTVSS”, the “polyreactivity (PSR sort gate)” value was “high polyreactivity”. With “QVQLVESGGGLVQAGGSLRLSCAASGSIFPRYAMGWYRQAPGKERELVAAITSGGSTNYADSVKGRFTISRDNAKNTVYLQMNSLKPDDTAVYYCATVRSLKEGASYFYWGQGTQVTVSS” the “polyreactivity (PSR sort gate)” value was “high polyreactivity”. For “QVQLVESGGGLVQAGGSLRLSCAASGSIFPSNTMGWYRQAPGKERELVATIRWNTGSTYYADSVKGRFTISRDNAKNTVYLQMNSLKPEDTAVYYCAALYVWLWGYRFDYWGQGTQVTVSS”, the “polyreactivity (PSR sort gate)” value was “high polyreactivity”. For “QVQLVESGGGLVQAGGSLRLSCAASGSIFPSYAMGWYRLAPGKERELVATISSDGGTNYADSVKGRFTISRDNAKNTVYLQMYSLKPEDTAVYYCATRTTYGQSGSAGPRPYNYWGQGTQVTVSS”, the “polyreactivity (PSR sort gate)” value was “low polyreactivity”. In the case of “QVQLVESGGGLVQAGGSLRLSCAASGSIFPSYAMGWYRQAPGKERELVAAISVSGGSTYYADSVKGRFTISRDNAKNTVYLQMNSLKPEDTAVYYCAAQHGYPRYYYWGQGTQVTVSS”, the “polyreactivity (PSR sort gate)” value is reported as “high polyreactivity”. With “QVQLVESGGGLVQAGGSLRLSCAASGSIFPSYAMGWYRQAPGKERELVATISGSGTRTYYADSVKGRFTISRDNAKYTFYLQMNSLKPEDTAVYYCAAETHVESGSRDFYTEDYWGQGTQVTVSS” the “polyreactivity (PSR sort gate)” value was “low polyreactivity”. With “QVQLVESGGGLVQAGGSLRLSCAASGSIFPSYAMGWYRQAPGKERELVAVINSGGSTYYADSVKGRFTISRDNAKNTVYFQMNSLKPEDTAVYYCAAYRRRYPRFDYWGQGTQVTVSS” the “polyreactivity (PSR sort gate)” value was “high polyreactivity”. With “QVQLVESGGGLVQAGGSLRLSCAASGSIFPSYAMGWYRQAPRKERELVATIGRGGTTNYADSVKGRFTISRDNAKNTVYLQMNSLKPEDTAVYSCNAERIWRYKDGYDYWGQGTQVTVSS” the “polyreactivity (PSR sort gate)” value was “high polyreactivity”. For “QVQLVESGGGLVQAGGSLRLSCAASGSIFPTYAMGWYRQAPGKERELVAAISWDGDITYYADSVKGRFTISRDHAKNTVYLQMNSLKPEDTAVYYCNASLFIEIYSFQYDDHFAEYGYWGQGTQVTVSS”, the “polyreactivity (PSR sort gate)” value was “high polyreactivity”. For “QVQLVESGGGLVQAGGSLRLSCAASGSIFPTYAMGWYRQAPGKERELVAAITGSGGSTYYADSVKGRFTISRDNAKNTVYLQMNSLKPEDTAVYYCAKDVYWYGVWYDYWGQGTQLTVSS”, the “polyreactivity (PSR sort gate)” value was “high polyreactivity”. With “QVQLVESGGGLVQAGGSLRLSCAASGSIFPVNAMGWSRQAPGKERELVATITWRGGRTYYADSVKGRFTISRDNAKNTVYLQMNSLKPEDTAVYYCAARLLYRHFGYWGQGTQVTVSS” the “polyreactivity (PSR sort gate)” value was “high polyreactivity”. With “QVQLVESGGGLVQAGGSLRLSCAASGSIFPVYAMGWYRQAPGKERELVAAINSSGGTTYYADSVKGRFTISRDNAKNTVYLQMNSLKPEDTAVYYCAAEISTASYFAKTYDYWGQGTQVTVSS” the “polyreactivity (PSR sort gate)” value was “low polyreactivity”. In the case of “QVQLVESGGGLVQAGGSLRLSCAASGSIFPVYAMGWYRQAPGKERELVAAISWGGGNTYYADSVKGRFTISRDNSKNTVYLQMNSLKPEDTAVYYCNKRSRLGRGNRDYRGQGTQVTVSS”, the “polyreactivity (PSR sort gate)” value is reported as “high polyreactivity”. In the case of “QVQLVESGGGLVQAGGSLRLSCAASGSIFPWYAMGWYRPAPGKERELVADITNGSSTNYADSVKGRFTISRDNAKNTVYLQMNSLKPEDTAVYYCARDGIGADGYDYWGQGTQVTVSS”, the “polyreactivity (PSR sort gate)” value is reported as “low polyreactivity”. In the case of “QVQLVESGGGLVQAGGSLRLSCAASGSIFPWYAMGWYRQEPGKERELVAAISKSGAGTYYADSVKGRFTISRDTAKNTVYLQMNSLKPEDTAVYYCNARWRSNRAARYDFWGQGTQVTVSS”, the “polyreactivity (PSR sort gate)” value is reported as “high polyreactivity”.
